{"source": "patent US6335019B1", "about": "“Methods for treating sensitivity to protein allergen using peptides which include a T cell epitope recognized by a T cell receptor specific for the protein allergen” (Immulogic Pharmaceutical Corp., priority 1989, dated 2002)", "molecules": {"B1": {"name": "affinity purified Amb a I: protein affinity purified from pollen extract with monoclonal antibody 4B5/B7 (protein)", "chain": "AEDLQEILPVNETRRLTTSGAYNIIDGCWRGKADWAENRKALADCAQGFGKGTVGGKDGDIYTVTSELDDDVANPKEGTLRFGAAQNRPLWIIFERDMVIRLDKEMVVNSDKTIDGRGAKVEIINAGFTLNGVKNVIIHNINMHDVKVNPGGLIKSNDGPAAPRAGSDGDAISISGSSQIWIDHCSLSKSVDGLVDAKLGTTRLTVSNSLFTQHQFVLLFGAGDENIEDRGMLATVAFNTFTDNVDQRMPRCRHGFFQVVNNNYDKWGSYAIGGSASPTILSQGNRFCAPDERSKKNVLGRHGEAAAESMKWNWRTNKDVLENGAIFVASGVDPVLTPEQSAGMIPAEPGESALSLTSSAGVLSCQPGAPC"}}, "test_system": "rabbit anti-Amb a I polyclonal antibody", "test": "Western blot with rabbit anti-Amb a I polyclonal antibody (FIG. 17)", "assay_type": "binding", "description": "As is also represented in FIG. 1A, rabbit polyclonal antibodies were produced using the King Antigen E preparation. […] These antibodies were also shown, using a similar technique, to bind to the affinity purified Amb a I described previously (FIG. 17).\nIt is clear from the antibody reactivity that the 4B5/B7 affinity purified Amb a I has a recognition pattern similar to that of the Amb a I of pollen and skin test reagent with both rabbit polyclonal anti-Amb a I and JB1E3-4 anti-Amb a I monoclonal antibody (FIG. 17).\nAffinity purified Amb a I was electrophoresed, Western transferred (Towbin et al., Proc. Natl. Acad. Sci. USA, 76:4350 (1979)) and probed with a variety of antibodies, including IgE from an allergic patient (FIG. 17). In pollen extract Amb a I is not only present as an intact 38-KD species, but also characterized by its component 26KD alpha chains and 12-KD beta chains which are formed by enzymatic cleavage. The intact 38-KD species and the alpha chain are clearly detected using rabbit anti-Amb a I, polyclonal affinity purified anti-RAE 16 and monoclonal anti-Amb a I JBIE3-4 (FIG. 17); RAE 16 peptide has the sequence RTDKDLLENGAIC derived from amino-acids 343-353 of Amb a IB, FIG. 16). […]"}
{"molecule": "B1", "values": [{"measurement": "Binding by rabbit anti-Amb a I polyclonal antibodies (in words)", "value": "bind"}]}
